Consider four molecules from PMC3566586 (Molecular Cell, 2010).

Where two headings read alike, the source gives them in different places.

The target in data set [1] is T1, recombinant Flag-tagged Yox1p(151–274) (S. cerevisiae, UniProt P34161 151-274).
T1 sequence (looked up): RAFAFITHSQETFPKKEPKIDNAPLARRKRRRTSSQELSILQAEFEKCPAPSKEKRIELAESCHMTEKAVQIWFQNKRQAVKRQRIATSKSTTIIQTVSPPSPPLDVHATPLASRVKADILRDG
Briefly: pull-down.

Data set [2] deals with Mcm1p(1-98);Yox1p full length (Saccharomyces cerevisiae;Saccharomyces …, UniProt P11746;P34161 1-98;1-385, |). Briefly: immobilized template pull-down.
Chain of Mcm1p(1-98);Yox1p full length (P34161 whole entry, one chain of several): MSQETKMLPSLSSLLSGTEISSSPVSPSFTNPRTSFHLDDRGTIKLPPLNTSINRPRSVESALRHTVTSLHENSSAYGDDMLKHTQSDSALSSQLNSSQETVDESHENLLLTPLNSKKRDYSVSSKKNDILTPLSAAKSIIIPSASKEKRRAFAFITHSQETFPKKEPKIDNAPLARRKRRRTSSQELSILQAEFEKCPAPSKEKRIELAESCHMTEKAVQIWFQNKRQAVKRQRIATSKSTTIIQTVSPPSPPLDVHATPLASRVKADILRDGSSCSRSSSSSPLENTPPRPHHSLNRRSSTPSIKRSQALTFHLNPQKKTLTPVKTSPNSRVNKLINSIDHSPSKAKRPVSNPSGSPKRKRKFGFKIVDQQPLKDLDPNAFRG
Data set [3] deals with T2, Mcm1p(1-98);Fkh2p(1-458) (Saccharomyces cerevisiae;Saccharomyces …, UniProt P11746;P41813 1-98;1-458, |). Briefly: EMSA. In general terms: Mobility shift assays separate free from complexed probe on a gel.
Data set [4] concerns the target T3, Mcm1p(1-98) (Saccharomyces cerevisiae, UniProt P11746 1-98). Briefly: EMSA.
The target in data set [5] is Mcm1p(1-96);Fkh2p full length (Saccharomyces cerevisiae;Saccharomyces …, UniProt P11746;P41813 1-96;1-862, |). As to the kind of experiment: EMSA.
Chain of Mcm1p(1-96);Fkh2p full length (P41813 whole entry, one chain of several): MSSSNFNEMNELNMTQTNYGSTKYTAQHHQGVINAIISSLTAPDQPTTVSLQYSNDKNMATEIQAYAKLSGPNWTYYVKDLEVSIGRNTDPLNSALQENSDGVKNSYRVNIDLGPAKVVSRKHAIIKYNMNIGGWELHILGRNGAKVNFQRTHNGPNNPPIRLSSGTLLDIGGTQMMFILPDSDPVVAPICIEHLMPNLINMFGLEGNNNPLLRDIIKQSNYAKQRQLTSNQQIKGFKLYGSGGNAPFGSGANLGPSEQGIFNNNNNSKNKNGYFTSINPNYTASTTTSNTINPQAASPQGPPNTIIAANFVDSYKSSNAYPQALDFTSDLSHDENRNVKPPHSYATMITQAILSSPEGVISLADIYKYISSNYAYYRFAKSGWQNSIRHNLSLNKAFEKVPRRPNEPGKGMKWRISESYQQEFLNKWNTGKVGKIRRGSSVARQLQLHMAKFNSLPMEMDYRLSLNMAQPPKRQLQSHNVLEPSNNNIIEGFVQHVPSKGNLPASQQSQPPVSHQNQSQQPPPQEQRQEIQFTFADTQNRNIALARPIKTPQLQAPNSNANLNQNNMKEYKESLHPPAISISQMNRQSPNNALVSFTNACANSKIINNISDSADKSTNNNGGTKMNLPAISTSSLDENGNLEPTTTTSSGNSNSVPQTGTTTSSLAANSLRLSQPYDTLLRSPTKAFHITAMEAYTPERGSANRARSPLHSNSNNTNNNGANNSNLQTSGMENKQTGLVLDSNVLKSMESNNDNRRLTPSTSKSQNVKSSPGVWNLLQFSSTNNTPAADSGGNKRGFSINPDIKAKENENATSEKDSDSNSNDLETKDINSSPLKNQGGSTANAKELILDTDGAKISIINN
Data set [6] deals with Mcm1p(1-98);Yox1p(151-274) (Saccharomyces cerevisiae;Saccharomyces …, UniProt P11746;P34161 1-98;151-274, |). Briefly: EMSA.
Data set [7] deals with Mcm1p(1-96);Yox1p(151-274) recombinant;Fkh2p(325-458) (Saccharomyces cerevisiae;Saccharomyces …, UniProt P11746;P34161;P41813 1-96;151-274;325-458, ||). Briefly: EMSA.
The target in data set [8] is Mcm1p(1-96);Yox1p(151-274) recombinant (Saccharomyces cerevisiae;Saccharomyces …, UniProt P11746;P34161 1-96;151-274, |). Briefly: competition.
The next data set addresses T4, Yox1p F163 mutant (Saccharomyces cerevisiae, UniProt P34161 151-274, F163A).
T4 sequence: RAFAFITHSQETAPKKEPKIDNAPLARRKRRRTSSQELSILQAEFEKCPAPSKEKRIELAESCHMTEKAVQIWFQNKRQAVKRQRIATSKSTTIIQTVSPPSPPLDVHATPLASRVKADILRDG
Briefly: EMSA.

The next data set addresses T5, Yox1p(F155A) (Saccharomyces cerevisiae, UniProt P34161 151-274, F155A).
T5 sequence: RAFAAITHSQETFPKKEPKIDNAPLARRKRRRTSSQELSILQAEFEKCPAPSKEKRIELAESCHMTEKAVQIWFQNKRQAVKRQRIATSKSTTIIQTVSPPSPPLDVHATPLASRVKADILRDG
Briefly: EMSA.

The target in a further data set is T6, Yox1p(F153A) (Saccharomyces cerevisiae, UniProt P34161 151-274, F153A).
T6 sequence: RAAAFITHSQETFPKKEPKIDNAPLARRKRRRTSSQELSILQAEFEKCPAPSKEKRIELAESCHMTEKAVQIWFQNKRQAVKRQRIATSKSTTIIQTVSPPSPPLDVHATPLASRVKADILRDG
Briefly: EMSA.

Data set [9] deals with T7, Yox1p(176-274) recombinant (Saccharomyces cerevisiae, UniProt P34161 176-274).
T7 sequence: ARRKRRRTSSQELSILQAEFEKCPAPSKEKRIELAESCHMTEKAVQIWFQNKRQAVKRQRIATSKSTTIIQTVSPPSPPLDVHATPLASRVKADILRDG
As to the kind of experiment: EMSA.

In data set [10] the target is T3, Mcm1p(1-98). As to the kind of experiment: EMSA. This is another data set of the same source.
The target in data set [11] is Mcm1p(1-98);Yox1p(151-274) recombinant (Saccharomyces cerevisiae;Saccharomyces …, UniProt P11746;P34161 1-98;151-274, |). As to the kind of experiment: EMSA.
Data set [12] has as its target T2, Mcm1p(1-98);Fkh2p(1-458). As to the kind of experiment: EMSA. The source holds these as a separate data set.
A further data set has as its target Mcm1p(1-98);Yox1p(E196H) (Saccharomyces cerevisiae;Saccharomyces …, UniProt P11746;P34161 1-98;151-274, |E196H). Briefly: EMSA.
Data set [13] has as its target Mcm1p(1-98);Yox1p(N226Q) recombinant (Saccharomyces cerevisiae;Saccharomyces …, UniProt P11746;P34161 1-98;151-274, |N226Q). As to the kind of experiment: competition.
The target in a further data set is T8, Fkh2p(325-458) (Saccharomyces cerevisiae, UniProt P41813 325-458).
T8 sequence: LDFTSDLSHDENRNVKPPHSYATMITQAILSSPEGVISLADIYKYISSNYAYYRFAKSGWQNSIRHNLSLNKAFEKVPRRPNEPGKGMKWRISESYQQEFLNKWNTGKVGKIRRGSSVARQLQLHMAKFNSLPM
As to the kind of experiment: EMSA.

Data set [14] addresses T9, Yox1p(151-274) recombinant (Saccharomyces cerevisiae, UniProt P34161 151-274).
T9 sequence: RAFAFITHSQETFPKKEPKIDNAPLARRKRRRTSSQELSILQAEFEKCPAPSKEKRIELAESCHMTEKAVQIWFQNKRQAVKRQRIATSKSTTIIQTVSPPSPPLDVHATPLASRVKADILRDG
As to the kind of experiment: EMSA.

B1: MBP-Mcm1p(1–96) (domain or fragment, S. cerevisiae, UniProt P11746 1-96, looked up)
chain: MSDIEEGTPTNNGQQKERRKIEIKFIENKTRRHVTFSKRKHGIMKKAFELSVLTGTQVLLLVVSETGLVYTFSTPKFEPIVTQQEGRNLIQACLNA
Regarding B1, in data set [1], the binding result is given as “binds”.

B2: SPO12 WT biotin (dsDNA)
DNA 1: TCGAGGTTAATATCTTTTCCTAATTTGGAAATATGTAAACAGGGC
DNA 2: TCGAGCCCTGTTTACATATTTCCAAATTAGGAAAAGATATTAACC
With B2, the binding result in data set [2] is on record as “binds”.

B3: SPO12 mut (Yox1p site) (dsDNA)
DNA 1: TCGAGGTTAGGATCTTTTCCTAATTTGGAAATATGTAAACAGGGC
DNA 2: TCGAGCCCTGTTTACATATTTCCAAATTAGGAAAAGATCCTAACC
For B3, the binding result in the data set with Mcm1p(1-98);Fkh2p(1-458) [3] and with Mcm1p(1-98) [4] was “binds” each time.

B4: SPO12 WT (dsDNA)
DNA 1: TCGAGGTTAATATCTTTTCCTAATTTGGAAATATGTAAACAGGGC
DNA 2: TCGAGCCCTGTTTACATATTTCCAAATTAGGAAAAGATATTAACC
Regarding B4, the binding result (in data set [5]; in [6]; in data set [7]; in [8]; with Yox1p F163 mutant; with Yox1p(F155A)) was “binds” throughout. The binding result (in the data set with Yox1p(F153A); in data set [9]; with Mcm1p(1-98) [10]; in data set [11]; with Mcm1p(1-98);Fkh2p(1-458) [12]; in the data set with Mcm1p(1-98);Yox1p(E196H)) was “binds” each time. Also, the binding result in [13] is recorded as “no binding”; with Fkh2p(325-458), “binds”; in data set [14] it was “binds”.
